Experimental data published in article PMC7966800, “Adiponectin-expressing Treg facilitate T lymphocyte development in thymic nurse cell complexes” (Communications Biology, 2021).
Values joined by “and” are separate entries in the source; they are usually repeats but may differ in a detail not shown here. Equal entries are not always repeated.

Target: the molecule itself
Experiment: non-reducing SDS-PAGE with Western blotting; thymus lysate of WT mice; non-reducing SDS-PAGE, polyclonal antibody to murine adiponectin

B1: Adiponectin (natural protein, mouse (endogenous in thymus), UniProt Q60994 18-247, looked up)
chain: EDDVTTTEELAPALVPPPKGTCAGWMAGIPGHPGHNGTPGRDGRDGTPGEKGEKGDAGLLGPKGETGDVGMTGAEGPRGFPGTPGRKGEPGEAAYVYRSAFSVGLETRVTVPNVPIRFTKIFYNQQNHYDGSTGKFYCNIPGLYYFSYHITVYMKDVKVSLFKKDKAVLFTYDQYQEKNVDQASGSVLLHLEVGDQVWLQVYGDGDHNGLYADNVNDSTFTGFLLYHDTN
notes: adiponectin, mouse, endogenous protein of thymus and thymic nurse cell (TNC) complexes; found as trimer, hexamer and HMW oligomers; Endogenous secreted glycoprotein; detected with a polyclonal antibody against murine adiponectin; also called Adn; ADIPOQ; source: endogenous, thymus tissue and TNC complexes of wild-type mice, in lysate
B1 was tested. Which “stoichiometry N” value did it give?
The value was 3 and 6.
